The results in this text go back to US20230034474A1 (AC IMMUNE, published 2023).

Where a chain is given by its changes, count along the chain named.

B1: ACI-24-41F12-Ab3 (IgG2a isotype) (antibody, V domains shown)
VH: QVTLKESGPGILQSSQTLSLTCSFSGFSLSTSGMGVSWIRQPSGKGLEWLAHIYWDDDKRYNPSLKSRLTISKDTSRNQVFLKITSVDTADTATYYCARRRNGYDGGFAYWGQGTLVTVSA
VL: DVLMTQTPLSLPVSLGDQASISCRSSQSIVHSNGNTYLEWYLQKPGQSPKLLIYKVSNRFSGVPDRFSGSGSGTDFTLKISRVEAEDLGVYYCFQGSHVPLTFGAGTKLELKR
notes: Recombinant murine IgG2a/kappa with the same VH/VL as ACI-24-41F12-Ab2; Biotinylated when used as detection antibody in the sandwich ELISA; also called ACI-24-41F12-Ab3-rec1
B2: ACI-31-25B1-Ab2 (murine IgG2a with a lambda light chain) (antibody, V domains shown)
VH: EVQLVESGGDLVKPGGSLKLSCAASRFTFSTYGMSWVRQTPDKRLEWVATISSGRSYTYYADSVKGRFTISRDNAKNTLYLQMSSLKSEDTAMYYCARNSNNQRDYYAMDYWGQGTSVTVSS
VL: QLVLTQSSSASFSLGASAKLTCTLSSQHITYTIEWYQQQPLKPPKYVMVLEKDGSHSTGDGIPDRFSGSSSGADRYLSISNIQPEDEAVYICGVGDAIKEQFVYVFGGGTKVTVLG
notes: also called AC-31-25B1-Ab2
B3: ACI-8041-1F11B5-Ab1 (antibody, mouse IgG2a, kappa, V domains shown)
VH: QVQLKESGPGLVAPSQSLSITCTVSGFSLTNYGVSWIRQPPGKGLEWLGVIWGDGSTNYHSALISRLSISKDNSKSQVFLKLNSLQTDDTATYYCTKGAGSWGQGIPVTVSA
VL: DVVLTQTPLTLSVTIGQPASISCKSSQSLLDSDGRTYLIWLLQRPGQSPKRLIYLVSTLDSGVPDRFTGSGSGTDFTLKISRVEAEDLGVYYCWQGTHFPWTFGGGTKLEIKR
notes: Murine IgG2a/kappa; also called ACI-8041-1F111B5-Ab1; ACI-8041- F1B5-Ab1
B4: ACI-8041-5A6H9-Ab1 (antibody, mouse IgG2a, kappa, V domains shown)
VH: DVQLQESGPGLVKPSQSLSLTCTVTGYSITSDYAWNWIRQFPGNKLEWMGYIDYSGITSYNPSLKSRISITRDTSKNQFFLQLNSVTTEDSATYYCARISGLDYDVRAGWFASWGQGTLVTVSA
VL: DIVMTQAAFSNPVTLGTSVSISCRSSKSLLHSNGITYLYWYLQKPGQSPQLLIYQMSNLASGVPDRFSSSGSGTDFTLRISRVEAEDVGVYYCAQNLERPLTFGAGTKLELKR
notes: Murine IgG2a/kappa; also called ACI-8041-5A61H9-Ab1; AC-8041-5A619-Ab1
B5: ACI-8041-5A2D4-Ab1 (antibody, mouse IgG2a, kappa, V domains shown)
VH: EVQLQQSGPELVKPGASVKISCKTSGYTFTENTMHWVKQIHGKSLEWIGGINPNNGVTNNNQKFEGKATLTVDKSSSTAYMELRSLTSEDSAVYYCARSDYDALYYSMDCWGQGTSVTVSS
VL: EIVLTQSPTTMAASPGEKITITCSGSSSIISNYLHWYQQKPGFSPKLLIYRTSNLASGVPTRFSGSGSGTSYSLTIGTMEAEDVATYYCQQGSSIPFTFGSGTKLEIKR
notes: Murine IgG2a/kappa
B6: ACI-8041-6C3C4-Ab1 (antibody, mouse IgG2a, kappa, V domains shown)
VH: EVQLQQSGPELVKPGASVNISCKTSGYTFTEYTMHWMKQSHGKSLEWIGGINPNNGVTGYNQKFKGRATLTVDKSSSTAYMELRSLTSEDSAVYYCARSDYDDLYYAMDYWGQGTSVTVSS
VL: B5 VL with G25A, I30S, T61A
notes: Murine IgG2a/kappa; also called ACD-8041-63C4-Ab1
B7: ACI-8039-307F7-Ab2 (antibody, mouse IgG2a, kappa, V domains shown)
VH: QVQLQQPGAELVRPGGSVKLSCKASGYSFTNYWMNWVKQRPGQGLEWIGMIHPSDSETRLNQKFKDKATLTVDKSSSTAYLQLSSPTSEDSAVYYCAKLLLYYFDYWGQGTTLTVSS
VL: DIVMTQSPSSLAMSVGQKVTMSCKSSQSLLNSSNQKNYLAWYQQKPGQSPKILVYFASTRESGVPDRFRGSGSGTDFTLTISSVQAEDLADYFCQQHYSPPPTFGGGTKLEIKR
notes: Murine IgG2a/kappa; also called AC-8039-307F7-Ab2
B8: ACI-8039-306H5-Ab1 (antibody, mouse IgG2a, kappa, V domains shown)
VH: QVTLKESGPGILKPSQTLSLTCSFSGFSLSTSGMGVGWIRQPSGKGLEWLAHIWWDDDKYYNPSLKSQLTISKDTSRNQIFLKITSVDTADTATYYCVRSLYFDYWGQGTTLTVSS
VL: B1 VL with L3V, I29L, E39H, Y92F, F94S, G96S, S97T
notes: Murine IgG2a/kappa; also called AC-8039-306H5-Ab1
B9: ACI-8041-3G11B3-Ab1 (antibody, mouse IgG2a, kappa, V domains shown)
VH: QVQLQQSGAELVKPGASVKLSCKASGYTFINYYIYWVKQRPGQGLEWIGEIIPSNDGTNFNEKFKTKATLTVDKSSSTAYMQLSSLTSEDSAVYYCTATGTVWGQGTLVTVSA
VL: B1 VL with N35I, L101W, A105G, L111I
notes: Murine IgG2a/kappa; also called ACD-8041-3G11B3-Ab1
B10: ACI-8041-4G6D2-Ab1 (antibody, mouse IgG2a, kappa, V domains shown)
VH: B9 VH with K13R, I30T, N31S, I34M, D56G, G57D, K65R, T66S
VL: B1 VL with L101W, A105G, L111I
notes: Murine IgG2a/kappa
B11: ACI-8041-9D7E1-Ab1 (antibody, mouse IgG2a, kappa, V domains shown)
VH: EVMLVESGGGLVKPGGSLKLSCAASGFTFSSYAMSWVRQTPEKRLEWVATISSGGNYTYCPDSVKGRFTISRDNAKNTLYLQMSSLRSEDTAMYYCAAYAYDDGYYFDYWGQGTTLTVSS
VL: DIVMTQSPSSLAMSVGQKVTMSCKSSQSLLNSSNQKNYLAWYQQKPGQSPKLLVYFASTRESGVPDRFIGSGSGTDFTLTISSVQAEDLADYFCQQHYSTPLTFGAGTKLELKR
notes: Murine IgG2a/kappa
B12: ACI-8041-10H3B11-Ab1 (antibody, mouse IgG2a, kappa, V domains shown)
VH: B11 VH
VL: DIQMTQSPSSLSASLGGKVTITCKASQDINKYIAWYQHKPGKGPRLLIHYTSTLQPGIPSRFSGSGSGRDYSFSISNLGPEDIATYYCLQYDNLLTFGGGTKLEIKR
notes: Murine IgG2a/kappa; Same VH as ACI-8041-9D7E1-Ab1; also called ACI-8041-11B3B11-Ab1; AC-8041-13B11-Ab
B13: ACI-8039-309D9-Ab2 (antibody, mouse IgG2a, kappa, V domains shown)
VH: QVQLQQSGPQLVRPGASVKISCKASGNSFTSYWMHWVKQRPGQGLEWIGMIDPSDSETRLNQKFKDKATLTVDKSSSTAYMQLSSPTSEDSAVYYCAGLYFTLDYWGQGTSVTVSS
VL: DILMTQSPSSLTVSAGEKVTMSCKSSQSLLASGNQNNYLAWHQQKPGRSPKILIIWASTRVSGVPDRFIGSGSGTDFTLTINSVQAEDLAVYYCQQSYSAPLTFGAGTKLELKR
notes: Murine IgG2a/kappa; also called AC-8039-309D9-Ab2
B14: ACI-8041-2B9H5-Ab1 (antibody, mouse IgG2a, kappa, V domains shown)
VH: QVQLQQSDAELVKPGASVKISCKVSGYTFTDHPIHWMKQRPDQGLEWIGYFYPRDSSTHYNEKFKGKATLTADKSSSTAYMQLNSLTSEDSAVYFCARSMGYWGQGTSVTVSS
VL: DIKMTQSPSSMYASLGERVTITCKASQDINSYLSWFQQKPGKSPKTLIYRANRLVDGVPSRFSGSGSGQDYSLTISSLDYEDMGIYYCLQYDEFPPTFGAGTKLELKR
notes: Murine IgG2a/kappa; also called AC-8041-2B95-Ab1
B15: ACI-8037-103H5-Ab2 (antibody, mouse IgG2a, kappa, V domains shown)
VH: QVTLKESGPGILKPSQTLSLTCSFSGFSLSTSGMGVGWIRQPSGKGLEWLAHIWWDDDKYYNPSLKSRLTISKDSSRNQVFLKITSVDTADTATYYCVRRGTRLEDYFDFWGQGTTLTVSS
VL: B1 VL with Q27R, Y54F, L88Q
notes: Murine IgG2a/kappa
B16: ACI-8037-109F4-Ab1 (antibody, mouse IgG2a, kappa, V domains shown)
VH: QVTLKESGPGILQPSQTLSLTCSFSGFSLSTSGMGVSWIRQPSGKGLEWLAHIYWDDDKRYNPSLKSRLTISKDTSRNQVFLKITSVDTADAGTYYCARRPIRTVVDAMDYWGQGTSVTVSL
VL: B1 VL with S28T, K50N
notes: Murine IgG2a/kappa

T4 sequence (P05067 other isoform, or with tags, fused parts or gaps limits assumed): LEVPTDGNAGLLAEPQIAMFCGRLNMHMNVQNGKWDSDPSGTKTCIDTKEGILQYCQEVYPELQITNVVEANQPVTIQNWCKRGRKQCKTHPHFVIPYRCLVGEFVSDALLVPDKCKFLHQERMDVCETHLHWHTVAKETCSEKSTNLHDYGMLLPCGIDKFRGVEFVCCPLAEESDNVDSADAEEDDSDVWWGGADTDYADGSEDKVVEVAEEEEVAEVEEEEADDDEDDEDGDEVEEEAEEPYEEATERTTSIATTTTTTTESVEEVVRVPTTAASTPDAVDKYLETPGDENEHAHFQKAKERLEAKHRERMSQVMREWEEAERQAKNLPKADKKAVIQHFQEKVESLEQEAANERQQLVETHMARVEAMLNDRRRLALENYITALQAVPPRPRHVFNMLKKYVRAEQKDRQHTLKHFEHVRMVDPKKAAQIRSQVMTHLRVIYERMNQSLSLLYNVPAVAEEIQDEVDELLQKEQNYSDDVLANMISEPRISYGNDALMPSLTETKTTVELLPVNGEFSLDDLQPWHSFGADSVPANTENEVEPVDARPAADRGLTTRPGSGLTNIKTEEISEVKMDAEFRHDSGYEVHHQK

In the first test the target is T1, bovine serum albumin (bovine, UniProt P02769 25-607).
T1 construct: Negative control antigen; also called BSA
The experiment in a line: indirect ELISA, plate coated with BSA, antibody titrated, anti-mouse IgG-HRP, O.D. 450 nm. A general note: An ELISA detects its analyte on a solid surface through an enzyme-linked reagent.
Description: (§1) Antibody target binding was evaluated by an enzyme-linked immunosorbent assay (ELISA). Briefly, Nunc MaxiSorp 96-well plates (Nunc) were coated for 18 h at 4° C. with 50 μL of 10 pg/mL Abeta1-42 or bovine serum albumin (BSA, Sigma) diluted in PBS. In selected assays, the full-length sAPPalpha fragment (Sigma) was additionally included by coating wells as described above, but at 4 pg/mL (0.04 μM). Plates were then washed 4-times with 300 μL of PBS containing 0.05% Tween20 (Millipore). To block non-specific binding to the plate, freshly prepared solution of PBS containing 0.05% Tween20 and 1% BSA, was added to each well (100 μL/well) and the plates were incubated for 1 h at 37° C. Primary antibodies were diluted to 100 nM in PBS containing 1% BSA and 0.05% Tween20, followed by 3-fold serial dilutions in duplicates. Solutions were added to plates at 50 μL/well and incubated for 1 h at 37° C. Subsequently, the plates were washed 4-times with 300 μL of PBS containing 0.05% Tween20. Plates were then incubated with horseradish peroxidase (HRP) conjugated goat anti-mouse secondary IgG (Abcam) for 1 h at 37° C. […] Finally, optical densities (O.D.) were read at 450 nm absorption wavelength using a Tecan Infinite plate reader. Measured values are expressed as mean O.D. from a duplicate run ±1 standard deviation of the mean (S.D.).
In the case of B1, the binding result is reported as “no binding (tested: 100 nM)”.

Another test deals with T1, bovine serum albumin. The test is described as above. The source holds these as a separate data set.
Description: as §1
Regarding B2, the binding result was “no binding (tested: 100 nM)”.

In a further test the target is T2, Abeta1-42 (human).
T2 construct: coated on plates in the direct ELISA, in solution as analyte in the sandwich ELISA; also called human Abeta 1-42; amyloid-beta 1-42
The experiment in a line: indirect ELISA, plate coated with Abeta1-42, antibody titrated, anti-mouse IgG-HRP, O.D. 450 nm.
Description: as §1
Take B1: the 50% effective concentration (EC50 (read off the curve)) – broadly, the concentration needed to bring the measured effect to its halfway point – was around 0.07 nM.

The target in a further test is T3, Human Abeta1-42 biotinylated at the peptide C-terminus (human, biotin at the peptide C-terminus).
T3 construct: also called biotinylated Abeta1-42
As to the kind of experiment: capture ELISA: antibody held on anti-mouse IgG Fc-coated plate, C-terminally biotinylated Abeta1-42 titrated in solution, streptavidin-HRP, O.D. 450 nm.
Description: (§2) Briefly, a Nunc MaxiSorp 96-well plate (Nunc) was coated for 18 h at 4° C. with 50 μL of 5 pg/mL goat anti-mouse IgG, Fc-gamma fragment specific antibody (Jackson Immune Research) diluted in carbonate-bicarbonate buffer. The plate was then washed 4-times with 300 μL of PBS containing 0.05% Tween20 (Millipore). To block non-specific binding to the plate, freshly prepared solution of PBS containing 0.05% Tween20 and 1% BSA, was added to each well (100 μL/well) and the plate was incubated for 1 h at 37° C. […] Subsequently, the plate was washed 4-times with 300 μL of PBS containing 0.05% Tween20. […] After washing 4-times with 300 μL of PBS containing 0.05% Tween20, the plate was incubated for 45 min at ambient temperature with 50 μL/well of streptavidin-HRP (R&D systems) diluted 1:200 in PBS containing 1% BSA and 0.05% Tween20. The plate was again washed 4-times with 300 μL of PBS containing 0.05% Tween20 before incubating at ambient temperature for 20 or 30 min with 50 or 100 μL/well of 3,3′,5,5′-tetramethylbenzidine (TMB) enzyme substrate (BD Bioscience). Reaction was stopped with a 1.2 M HCl (Sigma) solution. Finally, optical densities (O.D.) were read at 450 nm absorption wavelength using a Tecan Infinite plate reader.
On to B3, for which the “EC50 (read off the curve)” value is around 0.3 nM.

The next test addresses T4, full-length sAPPalpha fragment (UniProt P05067-4 18-612, limits assumed).
T4 construct: domain: sAPPalpha; Bought protein; also called soluble APP alpha; soluble amyloid precursor protein alpha
The experiment in a line: indirect ELISA, sAPPalpha coated.
Description: (§3) Antibody target binding was evaluated by an enzyme-linked immunosorbent assay (ELISA). Briefly, Nunc MaxiSorp 96-well plates (Nunc) were coated for 18 h at 4° C. with 50 μL of 10 pg/mL Abeta1-42 or bovine serum albumin (BSA, Sigma) diluted in PBS. In selected assays, the full-length sAPPalpha fragment (Sigma) was additionally included by coating wells as described above, but at 4 pg/mL (0.04 μM). Plates were then washed 4-times with 300 μL of PBS containing 0.05% Tween20 (Millipore). To block non-specific binding to the plate, freshly prepared solution of PBS containing 0.05% Tween20 and 1% BSA, was added to each well (100 μL/well) and the plates were incubated for 1 h at 37° C. Primary antibodies were diluted to 100 nM in PBS containing 1% BSA and 0.05% Tween20, followed by 3-fold serial dilutions in duplicates. Solutions were added to plates at 50 μL/well and incubated for 1 h at 37° C. Subsequently, the plates were washed 4-times with 300 μL of PBS containing 0.05% Tween20. Plates were then incubated with horseradish peroxidase (HRP) conjugated goat anti-mouse secondary IgG (Abcam) for 1 h at 37° C. After final wash step (4-times with 300 μL of PBS containing 0.05% Tween20), plates were incubated with 3,3′,5,5′-tetramethylbenzidine (TMB) substrate (BD Biosciences) and reaction stopped with a Stop Solution (Sigma). Finally, optical densities (O.D.) were read at 450 nm absorption wavelength using a Tecan Infinite plate reader. Measured values are expressed as mean O.D. from a duplicate run ±1 standard deviation of the mean (S.D.).
Take B3: the binding result was “no binding”.

B4: the binding result was “no binding”.

On to B5, for which the binding result is recorded as “no binding”.

With B6, the binding result is given as “no binding”.

Regarding B7, the binding result is on record as “no binding”.

For B8, the binding result is “no binding”.

For the molecule B9, the binding result was “no binding”.

For B10, the binding result was “no binding”.

Take B11: the binding result is “no binding”.

Consider B12, for which the binding result was “no binding”.

Consider B13, for which the binding result is reported as “no binding”.

For the molecule B14, the binding result was “no binding”.

The next test concerns the target T3, Human Abeta1-42 biotinylated at the …. The experiment in a line: capture ELISA: antibody held on anti-mouse IgG Fc-coated plate, C-terminally biotinylated Abeta1-42 titrated in solution, streptavidin-HRP, O.D. 450 nm. This is another data set of the same source.
Description: as §2
Regarding B12, the concentration for a half-maximal effect (EC50 (read off the curve)) was around 2 nM.

In the next test the target is T2, Abeta1-42. As to the kind of experiment: indirect ELISA, Abeta1-42 coated, antibody titrated.
Description: as §3
Regarding B2, the equilibrium dissociation constant (Kd) (as a rule, the free concentration of one partner at which half of the binding sites on the other are occupied at equilibrium, for simple one-to-one binding) came to 0.041 nM.

The molecule B1 registered a dissociation constant Kd of 0.066 nM.

In a further test the target is T2, Abeta1-42. The experiment in a line: sandwich ELISA: ACI-31-25B1-Ab2 coated as capture, analyte Abeta1-42 titrated, biotinylated ACI-24-41F12-Ab3 as detection, streptavidin-HRP, O.D. 450 nm.
Description: After washing 4-times with 300 μL of PBS containing 0.05% Tween20, the plate was incubated for 45 min at ambient temperature with 50 μL/well of streptavidin-HRP (R&D systems) diluted 1:200 in PBS containing 1% BSA and 0.05% Tween20. The plate was again washed 4-times with 300 μL of PBS containing 0.05% Tween20 before incubating at ambient temperature for 20 or 30 min with 50 or 100 μL/well of 3,3′,5,5′-tetramethylbenzidine (TMB) enzyme substrate (BD Bioscience). Reaction was stopped with a 1.2 M HCl (Sigma) solution. Finally, optical densities (O.D.) were read at 450 nm absorption wavelength using a Tecan Infinite plate reader.
Briefly, a Nunc MaxiSorp 96-well plate (Nunc) was coated for 18 h at 4° C. with 50 μL of capture antibody at 5 μg/mL, diluted in carbonate-bicarbonate buffer. The plate was then washed and blocked as described in the preceding paragraph.
Consider B2, for which the concentration for a half-maximal effect (EC50 (read off the curve)) is around 9 nM.

The next test deals with T3, Human Abeta1-42 biotinylated at the …. As to the kind of experiment: target capture ELISA.
Description: as §2
As for B4, the binding result is “binds”.

Take B5: the binding result is reported as “binds”.

With B6, the binding result is “binds”.

In the case of B7, the binding result is on record as “binds”.

Consider B1, for which the binding result is reported as “binds”.

Turning to B15, the binding result is recorded as “binds”.

Consider B8, for which the binding result is on record as “binds”.

In the case of B16, the binding result is listed as “binds”.

For B9, the binding result is recorded as “binds”.

Take B10: the binding result is given as “binds”.

As to B13, the binding result is recorded as “binds”.

As for B14, the binding result is “binds”.

For the next test, the target named is T2, Abeta1-42. As to the kind of experiment: indirect ELISA, plate coated with Abeta1-42, antibody titrated, anti-mouse IgG-HRP, O.D. 450 nm. This is another data set of the same source.
Description: as §1
Consider B2, for which the “EC50 (read off the curve)” value was around 0.04 nM.

For another test, the target named is T3, Human Abeta1-42 biotinylated at the …. As to the kind of experiment: target capture ELISA: antibody held by anti-mouse Fc, biotinylated Abeta1-42 titrated in solution.
Description: as §2
For B3, the Kd worked out at 0.343 nM.

B2 came in with a dissociation constant Kd of 0.312 nM.

Regarding B11, binding was characterised by a dissociation constant (Kd) of 1.1 nM.

Regarding B12, the equilibrium dissociation constant (Kd) came out at 2.6 nM.

Another test has the same target. As to the kind of experiment: capture ELISA: antibody held on anti-mouse IgG Fc-coated plate, C-terminally biotinylated Abeta1-42 titrated in solution, streptavidin-HRP, O.D. 450 nm. This is another data set of the same source.
Description: as §2
Regarding B2, the “EC50 (read off the curve)” value is around 0.4 nM.

The next test shares this target. The test is described as above. This is another data set of the same source.
Description: as §2
In the case of B11, the 50% effective concentration (EC50 (read off the curve)) was around 1 nM.
